This data set is described as follows: In vitro release rate from implantable osmotic delivery device (RP-HPLC). It counts as physicochemical. The conditions noted are these: 37° C., out to 100 days.

Protocol: For each study, a drug reservoir of an implantable osmotic delivery device was filled with 160 μl of one of the suspension formulations described in Example 2. The membrane ends of the osmotic pumps were placed into stoppered glass vials filled with 3 ml phosphate buffer solution (PBS), and the diffusion moderator ends of the osmotic pumps were placed into glass vials filled with 2.5 to 3 ml release rate medium (citrate buffer solution at pH 6.0 with 0.14 M NaCl and 0.2% sodium azide).
Each system was placed into a capped test tube, with the diffusion moderator side down, and partially immersed in a 37° C. water bath. At specified time points, the glass vials at the diffusion moderator ends were replaced with new glass vials filled with 2.5 to 3 ml release rate medium (citrate buffer solution at pH 6.0 with 0.14 M NaCl and 0.2% sodium azide). Samples were collected from the diffusion moderator ends of the osmotic pumps and analyzed using RP-HPLC.

Consider omega interferon, for which the approximate release rate was about 50 µg/day.

The values above are taken from patent US20170119854A1, “HIGHLY CONCENTRATED DRUG PARTICLES, FORMULATIONS, SUSPENSIONS AND USES THEREOF” (Intarcia Therapeutics, Inc., priority 2008, published 2017).
